Test results reported in PMC9131517, “Enzymatic N-Allylation of Primary and Secondary Amines Using Renewable Cinnamic Acids Enabled by Bacterial Reductive Aminases” (ACS Sustainable Chemistry & Engineering, 2022).

Legend:
Assay in all cases: initial rate of NADPH consumption
Assay type in all cases: biochemical, compost metagenome
Details in all cases: 80 mM cyclopropylamine, 0.3 mM NADPH, pH 7.5 (100 mM NaPi), 30 °C
[1] = substrate: O=CCCc1ccccc1
Excerpt: (§1) initial rate of NADPH consumption on BacRedAm

[2] = substrate: O=C/C=C/c1ccccc1
Excerpt: as §1

[3] = substrate: O=C1CCCCC1
Excerpt: as §1

B1: BacRedAm (compost metagenome) (protein)
chain: MREPIVSAHTERAVESRGADRGSAVTVIGLGSMGSALAGAVLEAGYPTTVWNRTAGKAEPLVRRGAARAATVAEAVSASPTVIACVLDYRALREILSTAGDALAGRTVVNLTNGTPTEARETAAWVEGHGARYLDGGIMAVPEMIGGAESLVLYSGSAEAFETVEPVLRRFGSAMYLGADPGLASLHDLALLAGMYGLFAGFLHAVALVGTEGVRATEFTSSLLIPWLQAMTATLPEAAAQIDAGDYAATGSRLDMQAVALANIVEASRSQGIRPDLMLPIQALVERRVAKGGGGEDIAAVVEEVRG
notes: recombinant, expressed in E. coli BL21, purified
B1 was tested, and the Km [1] was 2980 µM, the kcat [1] was 1.45 s⁻¹ and the Km [2] was 2580 µM. For the same protein, the kcat [2] was 0.11 s⁻¹, the Km [3] was 13320 µM and the kcat [3] was 5.12 s⁻¹.
